# From patent US20130196320A1, “METHOD FOR IMPROVING CLEAVAGE OF DNA BY ENDONUCLEASE SENSITIVE TO METHYLATION” (CELLECTIS, priority 2010, published 2013)
# What was measured:
# Format in all cases: cell-based, human
# [1] = test system: ADCY9 endogenous recognition site in 293H cells; experiment: Meganuclease-induced mutagenesis assay at ADCY9 recognition site
# Method: The human 293H cells (ATCC) were plated at a density of 1.2×10^6 cells per 10 cm dish in complete medium (DMEM supplemented with 2 mM L-glutamine, penicillin (100 IU/ml), streptomycin (100 μg/ml), amphotericin B (Fongizone: 0.25 μg/ml, Invitrogen-Life Science) and 10% FBS). The cells were pre-treated with 5-aza-deoxycytidine at 0.2 μM or 1 μM, 48 hours before transfection and the treatment was maintained 48 hours post-transfection. The medium was changed every day. The cells were transfected with 5 μg of DNA plasmids encoding meganuclease using Lipofectamine 2000 transfection reagent (Invitrogen) according to the manufacturer's protocol.
# The efficiency of the meganuclease to promote mutagenesis at its endogenous recognition site was evaluated by sequencing the DNA surrounding the meganuclease cleavage site.
# Two days post-transfection, genomic DNA was extracted. 200 ng of genomic DNA were used to amplify (PCR amplification) the endogenous locus surrounding the meganuclease cleavage site. PCR amplification is performed to obtain a fragment flanked by specific adaptor sequences [adaptor A: 5′-[…]-NNNN-3′ (SEQ ID NO: 46) and adaptor B, 5′-[…]-3′ (SEQ ID NO: 47)] provided by the company offering sequencing service (GATC Biotech AG, Germany) on the 454 sequencing system (454 Life Sciences). The primers sequences used for PCR amplification were: ADCY9_F3: 5′-[…]-NNNN-[…]-3′ (SEQ ID NO: 48) and ADCY9_R3: 5′-[…]-[…]-3′ (SEQ ID NO: 49). Sequences specific to the locus are underlined. The sequence NNNN in primer F1 is a Barcode sequence (Tag) needed to link the sequence with a PCR product. The percentage of PCR fragments carrying insertion or deletion at the meganuclease cleavage site is related to the mutagenesis induced by the meganuclease through NHEJ pathway in a cell population, and therefore correlates with the meganuclease activity at its endogenous recognition site. 5000 to 10000 sequences were analyzed per conditions.
# [2] = test system: ADCY9 endogenous locus in 293H cells; experiment: Meganuclease-induced gene targeting assay, ADCY9 locus; settings: for targeted events, % of the transfected cells: ADCY9 meganuclease + repair matrix, n=2
# Method: FIG. 14: ADCY9 meganuclease efficiency is impaired by DNA methylation in vivo. 293H cells were co-transfected with 5 μg of […] meganuclease expressing vector or empty vector and 2 μg of DNA repair matrix vector in presence or absence of DNA methylation inhibitor (5-aza-2′deoxycytidine). 480 individual cellular clones were analyzed in each condition for the presence of targeted events using specific PCR amplification.
# Cell culture as well as general transfection conditions were described in Example 4. For this assay, 293H cells were co-transfected with 5 μg of ADCY9 meganuclease expressing vector and 2 μg of DNA repair matrix. The DNA repair matrix consists of a left and right arms corresponding to isogenic sequences of 1 kb located on both sides of the meganuclease recognition site. These two homology arms are separated by a heterologous fragment of 29 bp (sequence: […], SEQ ID NO: 64). Two days post-transfection, cells were replated in 10 cm dish. Two weeks later, individual clones were picked and subsequently amplified in 96 wells plate for 3 days. 480 individual cellular clones were then analyzed per condition. DNA extraction was performed with the ZR-96 genomic DNA kit (Zymo research) according to the supplier's protocol. The detection of targeted DNA matrix integrations was performed by specific PCR amplification using the primers ADCY9_F4: 5′-[…]-3′ (specific to the 29 bp of heterologous sequence) (SEQ ID NO: 50) and ADCY9_R4: 5′-[…]-3′ (specific to a genomic sequence located outside of the homology arm) (SEQ ID NO: 51).
# [3] = test system: XPC4 target locus in 293H cells; experiment: Meganuclease-induced mutagenesis at XPC4 target locus by deep sequencing, 5-aza-2-deoxycytidine treatment
# Method: FIG. 10: Frequencies of mutagenesis events measured by deep sequencing. Cells were pre-treated with 5-aza-2-deoxycytidine at 0.2 μM or 1 μM 48 hours before transfection with XPC4 meganuclease or empty vector. The treatment was maintained 48 hours post-transfection. Two days post-transfection, the genomic DNA was extracted and a PCR with primers surrounding target site was performed. The results were expressed as a percentage of PCR fragments containing a mutation.
# The human 293H cells (ATCC) were plated at a density of 1.2×10^6 cells per 10 cm dish in complete medium (DMEM supplemented with 2 mM L-glutamine, penicillin (100 IU/ml), streptomycin (100 μg/ml), amphotericin B (Fongizone: 0.25 μg/ml, Invitrogen-Life Science) and 10% FBS) supplemented with 5-aza-deoxycytidine. The next day, cells were transfected with 3 μg of meganuclease expression vector in the presence of 5-aza-deoxycytidine and Lipofectamine 2000 transfection reagent (Invitrogen) according to the manufacturer's protocol.
# Cells were pre-treated with 5-aza-deoxycytidine at 0.2 μM or 1 μM 48 hours before transfection and the treatment was maintained 48 hours post-transfection. As a control, cells not treated with 5-aza-2-deoxycytidine (NT) were used. Extraction of genomic DNA was performed 48 hours after transfection.
# After genomic DNA extraction, the XPC4 target locus was amplified with specific primers flanked by specific adaptator needed for HTS sequencing on the 454 sequencing system (454 Life Sciences)
# 5000 to 10 000 sequences per sample were analyzed.
molecule,measurement,setting,value
"Nc1ncn([C@H]2C[C@H](O)[C@@H](CO)O2)c(=O)n1 [5-aza-2′deoxycytidine, reference compound]","mutagenesis, PCR fragments carrying a mutation","[1]; Empty vector, 0.2 μM 5-aza-2′-deoxycytidine",0.03%
same,"mutagenesis, PCR fragments carrying a mutation","[1]; Empty vector, 1 μM 5-aza-2′-deoxycytidine",0.03%
same,targeted events,"[2]; absence of meganuclease, with 5-aza-2′deoxycytidine treatment",no targeted events could be detected
same,mutagenesis,"[3]; empty vector, 1 μM of 5-aza-2′deoxycytidine",low or absent
ADCY9: engineered meganuclease (SEQ ID NO: 3) designed to cleave adenylate cyclase 9 gene (protein) MANTKYNEEFLLYLAGFVDGDGSIIAQIKPNQSYKFKHQLSLTFRVTQKTQRRWFLDKLVDEIGVGYVRDSGSVSNYDLSEIKPLHNFLTQLQPFLELKQKQANLVLKIIEQLPSAKESPDKFLEVCTWVDQVAALNDSKTRKTTSETVRAVLDSLSEKKKSSPAAGGSDKYNQALSKYNQALSKYNQALSGGGGSNKKFLLYLAGFVDSDGSIIAQIKPDQSYKFKHQLGLTFQVTQKTQRRWFLDKLVDRIGVGYVRDRGSVSDYILSEIKPLHNFLTQLQPFLKLKQKQANLVLKIIEQLPSAKESPDKFLEVCTWVDQVAALNDSKTRKTTSETVRAVLDSLSEKKKSSP,"mutagenesis, PCR fragments carrying a mutation","[1]; ADCY9 meganuclease, 0 μM 5-aza-2′-deoxycytidine",0.16% ± 0.06
same,"mutagenesis, PCR fragments carrying a mutation","[1]; ADCY9 meganuclease, 0 μM 5-aza-2′-deoxycytidine, listed as ADCY9 meganuclease",0.16%±0.06
same,"mutagenesis, PCR fragments carrying a mutation","[1]; ADCY9 meganuclease, 0.2 μM 5-aza-2′-deoxycytidine",0.48% ± 0.01
same,"mutagenesis, PCR fragments carrying a mutation","[1]; ADCY9 meganuclease, 1 μM 5-aza-2′-deoxycytidine",0.36%
same,mutations,"[1]; ADCY9 meganuclease, samples treated with 5-aza-2′deoxycytidine, n=2",up to 0.48%±0.01
same,"targeted events, % of the transfected cells",[2]; 5-aza-2′deoxycytidine (0.2 μM),3.37%±0.66
same,"targeted events, % of the transfected cells",[2]; absence of 5-aza-2′deoxycytidine,0.70%±0.14
same,increase of targeted event frequency,[2]; with 5-aza-2′deoxycytidine (0.2 μM) vs without,4.8 fold
XPC4: engineered meganuclease (SEQ ID NO: 2) designed to cleave xeroderma pigmentosum group C gene (XPC) (protein) MANTKYNEEFLLYLAGFVDGDGSIIAQIKPNQSHKFKHALQLTFKVTQKTQRRWFLDKLVDEIGVGYVQDSGSVSNYILSEIKPLHNFLTQLQPFLELKQKQANLALKIIEQLPSAKESPDKFLEVCTWVDQVAALNDSKTRKTTSETVRAVLDSLSEKKKSSPAAGGSDKYNQALSKYNQALSKYNQALSGGGGSNKKFLLYLAGFVDSDGSIIAQIKPNQSHKFKHQLSLAFQVTQKTQRRWFLDKLVDRIGVGYVRDRGSVSDYILSKIKPLHNFLTQLQPFLKLKQKQANLVLKIIEQLPSAKESPDKFLEVCTWVDQVAALNDSKTRKTTSETVRAVLDSLSEKKKSSP,PCR fragments carrying a mutation,"[3]; XPC4 meganuclease, absence of 5-aza-2′deoxycytidine",0.2-0.5%
same,mutations,"[3]; XPC4 meganuclease, samples treated with 5-aza-2′deoxycytidine",up to 7.6%
